# Data: paper PMC6745501, “Plant photoreceptors and their signaling components compete for COP1 binding via VP peptide motifs” (The EMBO Journal, 2019)
# T1: Arabidopsis COP1^349–675 WD40 domain (Arabidopsis, UniProt P43254 349-675)
# T1 construct: COP1 (CONSTITUTIVELY PHOTOMORPHOGENIC 1) E3 ubiquitin ligase, Arabidopsis, WD40 domain, residues 349-675; also called COP1 WD40 domain; COP1 WD40; not shown: His10, N-terminal, cleaved; Twin-Strep, N-terminal, cleaved
# T1 sequence (looked up): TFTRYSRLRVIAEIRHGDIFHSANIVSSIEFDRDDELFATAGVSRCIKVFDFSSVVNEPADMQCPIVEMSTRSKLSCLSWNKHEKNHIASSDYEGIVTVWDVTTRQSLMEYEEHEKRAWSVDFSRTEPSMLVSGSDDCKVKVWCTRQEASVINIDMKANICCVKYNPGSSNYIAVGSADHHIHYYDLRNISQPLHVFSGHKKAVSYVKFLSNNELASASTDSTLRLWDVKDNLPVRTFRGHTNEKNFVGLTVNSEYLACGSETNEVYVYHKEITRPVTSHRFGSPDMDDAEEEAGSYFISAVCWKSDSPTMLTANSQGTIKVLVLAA
# T2: COP1^349–675,Lys422Ala WD40 domain (Arabidopsis, UniProt P43254 349-675, Lys422Ala)
# T2 construct: COP1, Arabidopsis, WD40 domain, residues 349-675, Lys422Ala; also called COP1^Lys422Ala; not shown: His10, N-terminal, cleaved; Twin-Strep, N-terminal, cleaved
# T2 sequence (looked up): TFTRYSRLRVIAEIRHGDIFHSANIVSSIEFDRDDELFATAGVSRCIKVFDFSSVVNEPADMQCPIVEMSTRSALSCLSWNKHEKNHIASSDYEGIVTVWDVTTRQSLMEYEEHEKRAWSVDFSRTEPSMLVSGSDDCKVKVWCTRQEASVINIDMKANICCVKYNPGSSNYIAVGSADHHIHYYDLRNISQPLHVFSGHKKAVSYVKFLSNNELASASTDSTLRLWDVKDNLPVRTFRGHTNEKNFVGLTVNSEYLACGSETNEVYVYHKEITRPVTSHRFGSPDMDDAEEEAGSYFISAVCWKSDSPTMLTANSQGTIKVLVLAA
# B1: CRY2^NC80 (CRY2^486–565) (domain or fragment, Arabidopsis, UniProt Q96524 486-565, looked up)
# chain: SRTREAQIMIGAAPDEIVADSFEALGANTIKEPGLCPSVSSNDQQVPSAVRYNGSKRVKPEEEEERDMKKSRGFDERELF
# notes: cryptochrome 2 (CRY2), Arabidopsis, fragment of the C-terminus containing the VP motif (NC80 domain), residues 486-565; also called NC80 domain; not shown: His10, N-terminal, cleaved; Twin-Strep, N-terminal, cleaved
# B2: UVR8^HY5VP chimera (recombinant) (other)
# chain: MAEDMAADEVTAPPRKVLIISAGASHSVALLSGDIVCSWGRGEDGQLGHGDAEDRPSPTQLSALDGHQIVSVTCGADHTVAYSQSGMEVYSWGWGDFGRLGHGNSSDLFTPLPIKALHGIRIKQIACGDSHCLAVTMEGEVQSWGRNQNGQLGLGDTEDSLVPQKIQAFEGIRIKMVAAGAEHTAAVTEDGDLYGWGWGRYGNLGLGDRTDRLVPERVTSTGGEKMSMVACGWRHTISVSYSGALYTYGWSKYGQLGHGDLEDHLIPHKLEALSNSFISQISGGWRHTMALTSDGKLYGWGWNKFGQVGVGNNLDQCSPVQVRFPDDQKVVQVSCGWRHTLAVTERNNVFAWGRGTNGQLGIGESVDRNFPKIIEALSVDGASGQHIESSNIDPSSGKSWVSPAEEIRRVPEFTGLTDGSSKGNGGDISVPQTDVKRVRI
# B3: STO^240–247 VP peptide (peptide, UniProt Q96288 240-247, looked up)
# peptide: EHFIVPDL
# notes: SALT TOLERANCE (STO/BBX24) transcription factor, residues 240-247; also called STO peptide; SALT TOLERANCE (STO/BBX24); source: synthetic peptide (Peptide Specialty Labs GmbH)
# B4: UVR8^TRIB1VP chimera (recombinant) (other)
# chain: MAEDMAADEVTAPPRKVLIISAGASHSVALLSGDIVCSWGRGEDGQLGHGDAEDRPSPTQLSALDGHQIVSVTCGADHTVAYSQSGMEVYSWGWGDFGRLGHGNSSDLFTPLPIKALHGIRIKQIACGDSHCLAVTMEGEVQSWGRNQNGQLGLGDTEDSLVPQKIQAFEGIRIKMVAAGAEHTAAVTEDGDLYGWGWGRYGNLGLGDRTDRLVPERVTSTGGEKMSMVACGWRHTISVSYSGALYTYGWSKYGQLGHGDLEDHLIPHKLEALSNSFISQISGGWRHTMALTSDGKLYGWGWNKFGQVGVGNNLDQCSPVQVRFPDDQKVVQVSCGWRHTLAVTERNNVFAWGRGTNGQLGIGESVDRNFPKIIEALSVDGASGQHIESSNIDPSSGKSWVSPAESDQIVPEY
# B5: full‐length CRY2 (recombinant) (receptor, Arabidopsis, UniProt Q96524 1-612, looked up)
# chain: MKMDKKTIVWFRRDLRIEDNPALAAAAHEGSVFPVFIWCPEEEGQFYPGRASRWWMKQSLAHLSQSLKALGSDLTLIKTHNTISAILDCIRVTGATKVVFNHLYDPVSLVRDHTVKEKLVERGISVQSYNGDLLYEPWEIYCEKGKPFTSFNSYWKKCLDMSIESVMLPPPWRLMPITAAAEAIWACSIEELGLENEAEKPSNALLTRAWSPGWSNADKLLNEFIEKQLIDYAKNSKKVVGNSTSLLSPYLHFGEISVRHVFQCARMKQIIWARDKNSEGEESADLFLRGIGLREYSRYICFNFPFTHEQSLLSHLRFFPWDADVDKFKAWRQGRTGYPLVDAGMRELWATGWMHNRIRVIVSSFAVKFLLLPWKWGMKYFWDTLLDADLECDILGWQYISGSIPDGHELDRLDNPALQGAKYDPEGEYIRQWLPELARLPTEWIHHPWDAPLTVLKASGVELGTNYAKPIVDIDTARELLAKAISRTREAQIMIGAAPDEIVADSFEALGANTIKEPGLCPSVSSNDQQVPSAVRYNGSKRVKPEEEEERDMKKSRGFDERELFSTAESSSSSSVFFVSQSCSLASEGKNLEGIQDSSDQITTSLGKNGCK
# notes: cryptochrome 2 (CRY2), Arabidopsis blue-light photoreceptor, full length; not shown: His10, N-terminal, cleaved; Twin-Strep, N-terminal, cleaved
# B6: HYH^27–34 VP peptide (peptide, UniProt Q8W191 27-34, looked up)
# peptide: ELLMVPDM
# notes: HYH (HY5 homolog) transcription factor, residues 27-34; also called HYH peptide; source: synthetic peptide (Peptide Specialty Labs GmbH)
# B7: full‐length HY5 protein (recombinant) (natural protein, Arabidopsis, UniProt O24646 1-168, looked up)
# chain: MQEQATSSLAASSLPSSSERSSSSAPHLEIKEGIESDEEIRRVPEFGGEAVGKETSGRESGSATGQERTQATVGESQRKRGRTPAEKENKRLKRLLRNRVSAQQARERKKAYLSELENRVKDLENKNSELEERLSTLQNENQMLRHILKNTTGNKRGGGGGSNADASL
# notes: ELONGATED HYPOCOTYL 5 (HY5) bZIP transcription factor, full length; not shown: His10, N-terminal, cleaved; Twin-Strep, N-terminal, cleaved
# B8: COL3^287–294 VP peptide (peptide, UniProt Q9SK53 287-294, looked up)
# peptide: GFGVVPSF
# notes: COL3/BBX4 transcription factor, residues 287-294 (holds Phe288); also called COL3 VP peptide; COL3 peptide; source: synthetic peptide (Peptide Specialty Labs GmbH)
# B9: HFR1^57–64 VP peptide (peptide, UniProt Q9FE22 57-64, looked up)
# peptide: YLQIVPEI
# notes: LONG HYPOCOTYL IN FAR-RED 1 (HFR1) transcription factor, residues 57-64; also called HFR1 peptide; LONG HYPOCOTYL IN FAR‐RED 1; source: synthetic peptide (Peptide Specialty Labs GmbH)
# B10: CRY1^544–552 VP peptide (peptide, UniProt Q43125 544-552, looked up)
# peptide: EDQMVPSIT
# notes: cryptochrome 1 (CRY1), Arabidopsis blue-light photoreceptor, residues 544-552 (holds Asp545); also called CRY1 VP peptide; CRY1 peptide; source: synthetic peptide (Peptide Specialty Labs GmbH)
# B11: CO^366–373 VP peptide (peptide, UniProt Q39057 366-373, looked up)
# peptide: GYGIVPSF
# notes: CONSTANS (CO/BBX1) transcription factor, residues 366-373; also called CO VP peptide; CONSTANS; source: synthetic peptide (Peptide Specialty Labs GmbH)
# B12: UVR8^406–413 VP peptide (peptide, UniProt Q9FN03 406-413, looked up)
# peptide: RYAVVPDE
# notes: also called UVR8 VP peptide; UVR8 peptide; source: synthetic peptide (Peptide Specialty Labs GmbH)
# B13: CRY2^527–535 VP peptide (peptide, UniProt Q96524 527-535, looked up)
# peptide: NDQQVPSAV
# notes: also called CRY2 VP peptide; source: synthetic peptide (Peptide Specialty Labs GmbH)
# Tests used:
# [1] = target: T1, Arabidopsis COP1^349–675 WD40 domain; experiment: grating-coupled interferometry (GCI); COP1 WD40 amine-coupled (2,000 pg/mm^2), surface passivated with BSA; analyte full-length CRY2 activated by light (highest 14 μM) or CRY2^NC80 (highest 450 μM); 150 mM NaCl, 20 mM HEPES 7.4, 2 mM BME; 25°C; heterogenous ligand model; details: both partners purified
# [2] = target: the molecule itself; experiment: SEC; purified recombinant chimeric UVR8 proteins alone, in the absence of UV-B
# [3] = target: T1, Arabidopsis COP1^349–675 WD40 domain; experiment: crystal structure; co-crystals, 5 mg/ml COP1 with 3- to 10-fold molar excess of peptide; 1.25 M sodium malonate pH 7.5; 20°C; details: both partners purified
# [4] = target: T1, Arabidopsis COP1^349–675 WD40 domain; experiment: grating-coupled interferometry (GCI); COP1 WD40 amine-coupled to the chip (2,000 pg/mm^2); analyte in 1:3 dilution series from 2 μM (UVR8 forms pre-monomerized by UV-B; HY5); 150 mM NaCl, 20 mM HEPES 7.4, 2 mM BME; 25°C; 1:1 binding model; details: both partners purified
# [5] = target: T2, COP1^349–675,Lys422Ala WD40 domain; experiment: ITC; VP peptide (titrant, 500-3,000 μM) injected into COP1 WD40 in the cell at about 10-fold lower concentration; 150 mM NaCl, 20 mM HEPES 7.4, 2 mM BME; 25°C; one-site binding model; details: both partners purified
# [6] = target: T1, Arabidopsis COP1^349–675 WD40 domain; experiment: as above; details: both partners purified
binder,measurement,setting,value
B1,binding result,[1],binds
B2,stoichiometry N,[2],2
B3,binding result,[3],binds
B4,stoichiometry N,[2],2
B5,fold increase in binding affinity over the isolated CRY2 VP peptide,[1],~200 fold
B6,binding result,[3],binds
B7,Kd,[4],~1 µM
B8,stoichiometry N,[5],0.9
same,stoichiometry N,[6],0.75
B9,binding result,[3],binds
B10,stoichiometry N,[5],0.98
same,stoichiometry N,[6],0.99
B11,fold stronger binding than to wild type COP1,[5],~4 fold
same,stoichiometry N,[5],0.89
same,stoichiometry N,[6],1.03
B12,fold increase in binding affinity against wild type COP1,[5],~10 fold
same,stoichiometry N,[5],0.87
same,binding result,[6],binds
B13,fold reduction of binding against wild type COP1,[5],~30 fold
same,stoichiometry N,[6],1.04
